Data taken from the nanobody polyreactivity screen of Harvey et al. (2022).

Assay: yeast display, Sf9 membrane polyspecificity reagent, FACS + sequencing; frameworks hold sequencing errors
Procedure, shortened: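 A synthetic nanobody library was expressed on Saccharomyces cerevisiae BJ5465 by galactose induction for 36–48 hours. The library was stained for 1 hour at 4 °C with 10% biotinylated, detergent-solubilized Sf9 membrane reagent and enriched with streptavidin microbeads before FACS. Low and high (top ~1%) gates were set on anti-HA fluorescence for expression and streptavidin fluorescence for reagent binding, and each polyreactivity label reflects the gate of origin.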

Row | Sequence | polyreactivity (PSR sort gate)
1 | QVQLVESGGGLVQAGGSLRLSCAASGRTFYPNVMGWYRQAPGKERELVAAISISGGSTRYADSVKGRFTISRDNAKNTVYLQMNSLKPEDTAVYYCAAGYIYWYYSYDYWGQGTQVTVSS | high polyreactivity
2 | QVQLVESGGGLVQAGGSLRLSCAASGRTFYPYAMGWYIQAPGKEREFVATITWSGTTTYYADSVKGSFTISRDNAKNTFYLQMNSLKPVDTAVYYCAADVWEVVTPYGTIDDDYWGQGTQVTVSS | high polyreactivity
3 | QVQLVESGGGLVQAGGSLRLSCAASGRTFYPYAMGWYRPAPGKERELVAAIRWSGGSTYYADSVKGRFTISRDNAKNTVYLQMNSLKPEDTAVYYCNADWKSYRGPKFDYWGQGTQVTVSS | low polyreactivity
4 | QVQLVESGGGLVQAGGSLRLSCAASGRTFYPYAMGWYRQAPGKEREFVAAIRWRGGSTRYADSVKGRFTISRDNAKNTVYLQMNSLKPEDTAVYYCAADLRLGLNYYYWGQGTQVTVSS | high polyreactivity
5 | QVQLVESGGGLVQAGGSLRLSCAASGRTFYPYAMGWYRQAPGKERELVARISASGGSTYYADSVKGRFTISRDNAKNTVYLQMNSLKTEDTAVYYCARESFWRTLMDYWGQGTQVTVSS | high polyreactivity
6 | QVQLVESGGGLVQAGGSLRLSCAASGRTFYPYAMGWYRQAPGKERELVATITWSGTTTYYADSVKGRFTISRDNAKNIVYLQMNSLKPEDTAVYYCAADVWEVVTPYGTIDDDYWGQGTQVTVSS | high polyreactivity
7 | QVQLVESGGGLVQAGGSLRLSCAASGRTFYPYAMGWYRQEPGKVRELVARISSGGNTKYADSVKGRFTISRDNAKNTVYLQMNSLKPEDTAVYYCNAAHYDYVAWKRFNYWGQGTQVTVSS | high polyreactivity
8 | QVQLVESGGGLVQAGGSLRLSCAASGRTFYPYVMGWYRQAPGKEREFVAAISGTGGTTYYADSVKGRFTISRDNAKTTVYLQMNSLKPEDTAVYYCNRRIPYTSYSYGYWGQGTQVTVSS | high polyreactivity
9 | QVQLVESGGGLVQAGGSLRLSCAASGRTFYRNAMGWYRQAPGKDRELVAAISSGGSTTYADSVKGRFTISRDNAKNTVFFQMNSLKPEATAVYYCAARSHAGSVSPRLKEYDYWGQGTLVTVSS | low polyreactivity
10 | QVQLVESGGGLVQAGGSLRLSCAASGRTFYRNAMGWYRQAPGKEREFVAVISVSGGSTYYADSVKGRFTISRDNAKNTVYLQMNSLKPEDTAVSYCAADDYYLAGDYWGQGTQVTVSS | low polyreactivity
11 | QVQLVESGGGLVQAGGSLRLSCAASGRTFYRNAMGWYRQAPGKERELVARINDGAGTYYADSVKGRFTISRDNAKNTVYLQMNSLKPEDTAVYYCADDTWGTPTPFVHYPEFEHWGQGTQVTVSS | low polyreactivity
12 | QVQLVESGGGLVQAGGSLRLSCAASGRTFYRNAMGWYRQAPGKERELVARITSGGSTNYADSVKGRFTISRDNAKNTVYLQMNSLKPEDTAVYYCAAVSRYYPYGYWGQGTQVNVSS | high polyreactivity
13 | QVQLVESGGGLVQAGGSLRLSCAASGRTFYRNTMGWYRQAPGKERELVAAITSSGGSTYYADSVKGRFTISRDNAKNTVYLQMNSLKPEDTAVYYCAAPTWQKVVNPGGYYWGQGTQVTVSS | high polyreactivity
14 | QVQLVESGGGLVQAGGSLRLSCAASGRTFYRNVMGWYRQAPGKERELVAAISSRGGSTYYADSVKGRFTISRDNAKNTVYLQMNSLKPEDTAVYYCAAPRASGYYWGQGTQVTVSS | high polyreactivity
15 | QVQLVESGGGLVQAGGSLRLSCAASGRTFYRNVMGWYRQAPGKERELVAAISWSGGRTYYADSVKGRFTISRDNAKNTVYLQMNSLKPEDTAVYYCARYDRGGRHYYYWGQGTQVTVSS | high polyreactivity
16 | QVQLVESGGGLVQAGGSLRLSCAASGRTFYRYAMGWYRQAPGKERELVAAIRWSGGSTYYADSVKGRFTISRDNAKNTVYLQMNSLKPEDTAVYYCAKDTFRGYSPVKYDFWGQGTQVTVSS | low polyreactivity
17 | QVQLVESGGGLVQAGGSLRLSCAASGRTFYRYAMGWYRQAPGKERELVAAISRSGTTYYADSVKGRFTISRDNAKNTVYLQMNSLKPEDTAVYFCAAKPAGRQRGGDYWGQGTQVTVSS | high polyreactivity
18 | QVQLVESGGGLVQAGGSLRLSCAASGRTFYRYAMGWYRQAPGKERELVAAITRRGDSTSYADSVKGRFTNSRDNAKNTVYLQMNSLKPEDTADYYCATLVQGSVYGLYGGGYWGQGTQVTVSS | low polyreactivity
19 | QVQLVESGGGLVQAGGSLRLSCAASGRTFYRYAMGWYRQAPGKERELVAAITRRSGNTYYADSVKGRFTISRDNAKNTVYLQMNSLKPEDTAVYYCAADPETWSPHYESLGYYWGQGTQVTVSS | high polyreactivity
20 | QVQLVESGGGLVQAGGSLRLSCAASGRTFYRYGMGWYRQAPGKEREFVAAITRSGDSTYADSVKGRFTISRDNAKNTVYLQMNSLKPEDTAVYYCAKVFLRQYAYRYYYWGQGTQVTVSS | high polyreactivity
21 | QVQLVESGGGLVQAGGSLRLSCAASGRTFYSNAMGWNRQAPGKERELVATITLSGGSTDYADSVKGRFTISRDNAKNTVYLQMNSLKPEDTAVYYCNADTDVHLIMGYWGQVTQVTVSS | low polyreactivity

Row | Sequence | polyreactivity (PSR sort gate)
22 | QVQLVESGGGLVQAGGSLRLSCAASGRTFYSNAMGWYRQAPGKERELVAAISSSGTSTRYADSVKGRFTISRDNAKNTVYLQMNSLKPEDTAVYYCAAVGWYHDYYWGQGTQVTVSS | high polyreactivity
23 | QVQLVESGGGLVQAGGSLRLSCAASGRTFYSNAMGWYRQAPGKERELVAAITSTDDSTYYADSVKGRFTISRDNAKNTVYLPMNSLKPEDTAVYYCAAESGYPVYTYVSSGDYWGQGTQVTVSS | low polyreactivity
24 | QVQLVESGGGLVQAGGSLRLSCAASGRTFYSNAMGWYRQAPGKERELVAGISKRGTITYYADSVKGRFTISRDNAKNTVYLQMNSLKPEDTAVYYCAVGRPSGWSYYTGGDYWGQGTQVTVSS | high polyreactivity
25 | QVQLVESGGGLVQAGGSLRLSCAASGRTFYSNAMGWYRQAPGKERELVAVIRWNGGSTYADSVKGRFTISRDNAKNTVYLQMNSLKPEDTAVYYCAVTRYHSPPRYYYWGQGTQVTVSS | low polyreactivity
26 | QVQLVESGGGLVQAGGSLRLSCAASGRTFYSNVMGWYRQAPGKERELVAAISKSGGRTYYADSVKGRFTISRDNAKNTVYLQMNSLKPEDTAVYYCATDHGRYHGRYDYWGQGTQVTVSS | high polyreactivity
27 | QVQLVESGGGLVQAGGSLRLSCAASGRTFYSYAIGWYRPAPGKERELVASITRSGTRTYYADSVKGRFTISRDNAKNTVYLQMNSLKPEDSAVYYCAARYFPLGGYSWGQGTQVSVSS | high polyreactivity
28 | QVQLVESGGGLVQAGGSLRLSCAASGRTFYSYAMGWYRPAPGKERELVAAISRRGGSTYYADSVKGRFTISRDNAKNTVYLQMNSLKPEDTAVYYCAKGGGRVGQPGYDYWGQGTQVTVSS | high polyreactivity
29 | QVQLVESGGGLVQAGGSLRLSCAASGRTFYSYAMGWYRPAPGQERELVARITWSGGTYYADSVKGRFTISRDNAKTTVYLQMNSLKPEDTAVYYCNKYRPYGRIYHLAYGRDYWGQGTQVTVSS | high polyreactivity
30 | QVQLVESGGGLVQAGGSLRLSCAASGRTFYSYAMGWYRQAPGKERDLVASITRAGSTYYADSVKGRFTISRDNAKNTVYLQMNSLKPEDTAVYYCAATYRSDRRYGSHYRVDYWGQGTQVTVSS | high polyreactivity
31 | QVQLVESGGGLVQAGGSLRLSCAASGRTFYSYAMGWYRQAPGKERELVAAISSSSGRTYYADSVKGRFTISRDNAKNTVYLQMNSLKPEDTGVYYCNRAGGYRTTFYSWGQGTQVTVSS | high polyreactivity
32 | QVQLVESGGGLVQAGGSLRLSCAASGRTFYSYAMGWYRQAPGKERELVAAISYTGASTFYADSVKGRFTISRDKSKNTVYLQMNSLKPEDTAVYYCADRKVRFGVDYWGQGTQVTVSS | high polyreactivity
33 | QVQLVESGGGLVQAGGSLRLSCAASGRTFYSYAMGWYRQAPGKERELVAAISYTGASTFYADSVKGRFTISRDNAKNTVYLQMNSLKPEDTAVYYCAGRKVRFGVDYWGQGTQVTVSS | high polyreactivity
34 | QVQLVESGGGLVQAGGSLRLSCAASGRTFYSYAMGWYRQAPGKERELVASISSGGGTNYADSVKGRFTISRDNAKNTVYLQMNSLKPEDTAVYYCAAKYWFFYPYDYWGQGTQVTVSS | low polyreactivity
35 | QVQLVESGGGLVQAGGSLRLSCAASGRTFYSYAMGWYRQAPGTERELVAAITSSGGRTYYADSVKGRFTISRDNAKNTVYLQMNSLKPEDTAVYYCAAKWITRRGGDFDYWGQGTQVTVSS | high polyreactivity
36 | QVQLVESGGGLVQAGGSLRLSCAASGRTFYSYSMGWYRQAPGKERELVAAINRSGGRTYYADSVKGRFTISRDNAKNTVYLQMNSLKPEDTAVYYCNALEYYRYDYWGQGTQVTVSS | high polyreactivity
37 | QVQLVESGGGLVQAGGSLRLSCAASGRTFYTNAMGWYRQAPGKERELVAVISRGGTTYYADSVKGRFTISRDNAQNSVSLQMNSLKPDDTAVYYCAKRSPYRYYGYKLRDYWGQGTQVTVSS | low polyreactivity
38 | QVQLVESGGGLVQAGGSLRLSCAASGRTFYTYAMGWYRQAPGKEREFVAAITGSGGSTYYADSVKGRFTISRDNAKNTVYLQLNSLKPEDTAVYYCNARSPGDVWYYYWGQGTQVTVSS | low polyreactivity
39 | QVQLVESGGGLVQAGGSLRLSCAASGRTFYTYAMGWYRQAPGKERELVAAINWSATRTYYADSVKGRFTISRDNAKNTVYLQMNSLKPEDTAVYYCNAVYYRSSYPSGRYGMDYWGQGTQVTVSS | high polyreactivity
40 | QVQLVESGGGLVQAGGSLRLSCAASGRTFYTYAMGWYRQAPGKERELVAAITVTGDSTYYADSVKGRFTISRDNAKNTVYLQMNSLKPEDTAVYYCAADDYDPWYDWTMYYWGQGTQVTVSS | high polyreactivity
41 | QVQLVESGGGLVQAGGSLRLSCAASGRTFYTYAMGWYRQAPGKERELVAAITYRGGNTYYADSVKGRFTISRDNAKNTVYLEMNSLKPEDTAVYYCAATYKRRSGQSFDYWGQGTQVTVSS | high polyreactivity
